The record followed here is paper PMC4319731, “A Lipoxygenase from Red Alga Pyropia haitanensis, a Unique Enzyme Catalyzing the Free Radical Reactions of Polyunsaturated Fatty Acids with Triple Ethylenic Bonds” (PLoS ONE, 2015).

The target of one data set is T1, PhLOX2 (Pyropia haitanensis, UniProt R9UEL2).
T1 construct: gene lox2; monomer by size exclusion
Put plainly: UV absorbance of conjugated diene at […] nm, Lineweaver-Burk. The format is biochemical. To be noted: pH 8.0, 20°C, 12 μM enzyme, substrate 20-200 μM; O2 co-substrate.

Substrate in data set [1]: CCCCC/C=C\C/C=C\C/C=C\C/C=C\CCCC(=O)O
Put plainly: purified protein. The format is biochemical, Pyropia haitanensis. To be noted: pH 8.0, 20°C, 12 μM enzyme, substrate 20-200 μM, O2 co-substrate.

Substrate in data set [2]: CC/C=C\C/C=C\C/C=C\C/C=C\C/C=C\C/C=C\CCC(=O)O
The experiment in a line: purified protein. The format is biochemical, Pyropia haitanensis. To be noted: pH 8.0, 20°C, 12 μM enzyme, substrate 20-200 μM, O2 co-substrate.

Substrate in data set [3]: CC/C=C\C/C=C\C/C=C\C/C=C\C/C=C\CCCC(=O)O
Put plainly: purified protein. The format is biochemical, Pyropia haitanensis. To be noted: pH 8.0, 20°C, 12 μM enzyme, substrate 20-200 μM, O2 co-substrate.

Broadly, the Km is the substrate concentration at which the rate is half of its maximum. In the case of `CCCCC/C=C\C/C=C\C/C=C\CCCCC(=O)O` [GLA], at PhLOX2, the Km came to 151 µM.

B1: PhLOX2 (Pyropia haitanensis) (protein)
chain: MAHTGTLGGSGCGQPLVAALKAHRTVVDGTIDAPVEAVWAKLRDFGGWPAWWPAMGATAVTPPGPPAVGQERAFTANGRSYVEALTWLDEGAHLLEYRLVSADPPLLDAGARTTFEAVPAGARSTRLTVECAFQPAYNVDAGVIRGGQTAAYESIMEGLQHALVEGPPLRPLRLTVTKNELRREVTAGHLLLTMGGVVLHRLRLTGAGTPVSADAVTVQLSRADAELRLELLDAKDTPVAAGSVAVGALTTPPVTHGVVLSNPHGDPVGTYTVSVVNAPPSSTVEAATALLFSLGKSLAEQLLQTVFFMGHDDGRWAYGEYTAADGTALTMPKYCAVLPPSQAIRPERLGQLFARNAEFLYAQAELLKLLVDTNPPGLEELPQAVRDKLAKEAALQKKIKERVTHEPSPFRLTFGGDHPAPERVIETWRDDEEQAAQMIRGINPMKLRRVTDAAAELPPAFHGLRDDAGRDVAALAAANALFYADYAELMVGELDEETGAYHHQAESAVLDSTVGGVKYWYAPRLVVYKTLAGKLSFLGFTLTRRGDAPGDDEMYTAAGTPPVRYTLAKIHLTCADNQVHQFVSHLGMTHLLAEPFIVAAHNVLPPSHIVSALLAVHFQDTIGINFLARQTLVSTVAPLTDATFSVGTGHALSIFAAAYDGWDFLGDNFVGALAKRGFTADAAADGLHDFYYREDGFRVWNALTRYVSTVLHGHYGAGTAADDAVAADPVLAAWCAEMRDPAAAGVASFPAAFTTVGALVEAVVSIIFLCSAQHAAVNFPQRDYVAYVPNRPDSVRLPMPPRPAAGADNDEAVVGATLPDVAVSVFQTLFAHLLTTPSDAPVSSYAALKEDHPAAWGAFTADLAQLQRDIEARNAALVAANEAPYPYLAPENMPLSIDI
notes: monomer by size exclusion
The term kcat denotes the number of substrate molecules converted per active site and unit of time at saturation. A word on the kcat/Km: it is the second-order rate constant that governs catalysis at low substrate concentration. In the case of B1, the Km in “purified protein [1]” is 114.17 µM; in “purified protein [2]” it was 91.59 µM; in the data set “purified protein [3]”, 54.09 µM. Also, the kcat in “purified protein [1]” was determined as 47.5 s⁻¹; in the data set “purified protein [2]” it was 12.6 s⁻¹; in “purified protein [3]”, 62.5 s⁻¹. Moreover, the kcat/Km turned out to be 416000 M⁻¹ s⁻¹ in “purified protein [1]”, 138000 M⁻¹ s⁻¹ in the data set “purified protein [2]” and 1.16e+06 M⁻¹ s⁻¹ in the data set “purified protein [3]”.
